Among the data in patent US20230357716A1 are reduction in detectable CD38+ pbNK cell counts against the control condition values, retold here.

The test addresses CD38 (UniProt P28907). In words: cell-based or functional assay.

Substance daratumumab (antibody) came in with a reduction in detectable CD38+ pbNK cell counts against the control condition of 21 fold.
